From the supplement of paper PMC9170038

System: MS2 coat protein
Experiment: apparent KD of MS2 coat protein; designed switch direction (-1 OFF switch, 1 ON switch): 1; higher = weaker reporter binding
Method in brief: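 Apparent KD, taken as the median over clusters for each design, was obtained by curve-fitting normalised cluster fluorescence. Designed RNA switches had been transcribed on Illumina chips by stalled E. coli RNA polymerase and titrated with SNAP-549-labelled MS2 coat protein, doubling from 0.7 or 1.5 nM to 3 µM.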

[1] = input ligand: microRNA oligo, concentration not stated
[2] = Eterna round: R95, input ligand: FMN 200 uM
[3] = Eterna round: R95, input ligand: microRNA oligo, concentration not stated
[4] = Eterna round: R95, input ligand: none

Sequence	apparent KD of MS2 coat protein (input ligand: FMN 200 uM)	apparent KD of MS2 coat protein [1]	apparent KD of MS2 coat protein (input ligand: none)	apparent KD of MS2 coat protein [2]	apparent KD of MS2 coat protein [3]	apparent KD of MS2 coat protein [4]
GUUGAGAAAUAAGGAUAUGCAUGGAAGACACAUGAGGAUCACCCAUGUGGGAGGGAAACCAGGAGGUAGAAGGUAUUGGGAAAC [AK SSNG2-V2-23.1] (Eterna round: R96, puzzle: Same State NG 2)	0.0438 µM	0.0287 µM	0.0491 µM			
UAAAUGAAGUAAGGAUAUACAUGAGGAUCACUCGUAGAAGGUACUAUACAUGAGGAUCACCCAUGUGCCGGUCAGAAGACUGGA [Mat - Same State NG 1 - JL mod - D6] (Eterna round: R96, puzzle: Same State NG 1)	0.804 µM	0.533 µM	0.943 µM			
UAACGCGCAUGCAAGGAUAUGUGCAGAGCUACAUGAGGAUCACCCAUGUGGUUAUGCUAUUGAAAACAGAAGGUGCCCUCGCUCA [Ceties] (Eterna round: R96, puzzle: Same State 2)	0.0207 µM	0.0164 µM	0.0227 µM			
UAAGUAUGUUGAGGAUAUUAUGUUUAGUGUGAUGACAUGAGGAUCACCCAUGUGUUAUGAGUUUUUAAGAAGGCAACAUACUUA [JR_SSNG2_Sub091] (Eterna round: R96, puzzle: Same State NG 2)	0.0351 µM	0.0417 µM	0.0552 µM			
UACAAUCUAUCUGAGGAUAUCAUGAACAAAACAUGAGGAUCACCCAUGUGCAGGAAAACUGCAUAUGAGAAGGCAGAUAGAUUGU [Mat - Same State 2 - Mod - D22] (puzzle: Same State 2)				0.051 µM	1.56 µM	0.876 µM
UACAAUCUAUCUGAGGAUAUCAUGAAUAUAACAUGAGGAUCACCCAUGUGCAGGAAAACUGCAUAUGAGAAGGCAGAUAGAUUGU [salish99_ss2_r3_068] (puzzle: Same State 2)				0.0613 µM	0.0492 µM	0.109 µM
UACAAUCUAUCUGAGGAUAUCAUGAAUUAUACAUGAGGAUCACCCAUGUGCAGGAAAACUGCAUAUGAGAAGGCAGAUAGAUUGU [salish99_ss2_r3_062] (puzzle: Same State 2)				0.0634 µM	0.0436 µM	0.183 µM
UACAAUCUAUCUGAGGAUAUCAUGAUUGUAACAUGAGGAUCACCCAUGUGCAGGAAAACUGCAUAUGAGAAGGCAGAUAGAUUGU [salish99_ss2_r3_071] (puzzle: Same State 2)				0.113 µM	0.078 µM	0.708 µM
UACAUGAGGAUCACCCAUGUAGUCCAUGCACCGGACCGAAGCGAGGAUAUGGUCUGCAUCGGUGGCCAGAAGGCGCUUCCAGAA [Eternabot solution 26] (Eterna round: R96, puzzle: Same State NG 3)	0.0247 µM	0.0213 µM	0.0467 µM			
UAGACAAGCUUUAUGUUCUUCCUUUUCCUACAUGAGGAUCACCCAUGUAGUCUGUCGAUUGAGAGAGUAGUUGAGAA [JR_SHM208A_Sub024] (puzzle: Sensor for hsa-mir-208a)				0.0178 µM	0.0165 µM	0.0182 µM
UAGAGAGGAAGCGAGGAUAUCGUGGGAGGAACAUGAGGAUCACCCAUGUGUGAUGUUGAGAGGGACGAGAAGGCGCUGGAAAUUA [JR_SS2_Sub081] (puzzle: Same State 2)				0.0991 µM	0.126 µM	0.174 µM
UAGAGAGGAAGCGAGGAUAUCGUGUUAGGUACAUGAGGAUCACCCAUGUUGUAGGUAGAGGUAGGCGAGAAGGCGCAGGAGAGGG [JR_SS2_Sub093] (puzzle: Same State 2)				0.0563 µM	0.0471 µM	0.0838 µM
UAGAGAGGAAGCGAGGAUAUCGUGUUAGGUACAUGAGGAUCACCCAUGUUUUAAGUAGAGAUAGGCGAGAAGGCGCAGGAGAAAA [JR_SS2_Sub088] (puzzle: Same State 2)				0.0286 µM	0.0267 µM	0.0302 µM
UAGAUUAGAAGUUAACAUGAGGAUCACCCAUGUAUUGGAACAGAGGAUAUGCAUGUUUGAUAGUAGCAGAAGGCUGAAGGUGGA [JR_SSNG3_Sub025] (Eterna round: R96, puzzle: Same State NG 3)		0.0684 µM				
UAGCUCGUGUGAGGAUAUGCCGCCGUUUCGGCUGCAGAAGGUGCUACGUUACAUGAGGAUCACCCAUGUCUCUGUUGUUUCGUC [salish99_SSNG1_r04_955] (Eterna round: R96, puzzle: Same State NG 1)		0.0239 µM				
UAGUACAAGCUUUUUGCUUGUCUUAUUUAACAUGAGGAUCACCCAUGUAAGUUGAAAGUUAGAGAGUGCAGGUUGAA [JR_SHM208A_Sub051] (puzzle: Sensor for hsa-mir-208a)				0.0168 µM	0.0219 µM	0.0171 µM
UAGUACAUGCUUUUUGUCCGUCUUAGAUAACAUGAGGAUCACCCAUGUAAGGUGAAAGUUAUAUAGUUUAGGAAGAU [JR_SHM208A_Sub056] (puzzle: Sensor for hsa-mir-208a)				0.309 µM	0.424 µM	0.331 µM
UAGUACAUGCUUUUUGUCUGUCUUAGAUCACAUGAGGAUCACCCAUGUUUGGUGAAAGUUAUUUUGUUUAUGACUAU [JR_SHM208A_Sub060] (puzzle: Sensor for hsa-mir-208a)				0.257 µM	0.194 µM	0.43 µM
UAGUAUUAACGAGGAUAUAAUAUGUUCAAUUUUUUAUAUUGUUUACAUGAGGAUCACCCAUGUUAUUAGAAGGCGUAUGGGAUU [JR_SSNG2_Sub082] (Eterna round: R96, puzzle: Same State NG 2)		0.0509 µM				
UAGUGCAUUAGAGGAUAUUCUUACGACACGAGUAAGACAUGAGGAUCACCCAUGUCGUGACAUGGGAAGAAGGCUGAUGUGCUA [Omei SS(NG)2 Bv6] (Eterna round: R96, puzzle: Same State NG 2)	0.012 µM	0.0271 µM	0.0358 µM			
UAGUGCUGUUGAGAGGAUAUGCGGCGACGGACAUGAGGAUCACCCAUGUUAGCGACAGCGUUGCGGCAGAAGGCUCUGCCCGCUA [Soteed Omei mod 52] (puzzle: Same State 2)				0.0131 µM	0.0274 µM	0.0333 µM
UAUCCAUAGAUAGGAUAUUAGAGAACAUGAGGAUCACCCAUGUUUGGCUUGGUUUUAAGCCAAUCUAAGAAGGAUCUUGAUGAA [SameState NG2 #10] (Eterna round: R96, puzzle: Same State NG 2)	0.0221 µM	0.0665 µM	0.0721 µM			
UAUGAAUUGCAAGGAUAUUGAUAACAUGAGGAUCACCCAUGUAAUUGAUCGAGUUAGAUCAGUUACAAGAAGGUGCUAUUGAUU [JR_SSNG2_Sub036] (Eterna round: R96, puzzle: Same State NG 2)	0.534 µM	0.0245 µM	0.0907 µM			
UAUUCAUUCAGAGGAUAUUGUUUAUCUCUAUUUCAAGAAGGCUGAUUUUACUACUUACUUAUGAAACAUGAGGAUCACCCAUGU [JR_SSNG1_Sub020] (Eterna round: R96, puzzle: Same State NG 1)		0.0187 µM				
